The target of this assay is Vitronectin purified from human plasma (human) (UniProt P04004). The assay can be described thus: ELISA: biotinylated suPAR without uPA1-48 on vitronectin-coated wells.
Vitronectin purified from human plasma (human), sequence (P04004 20-478): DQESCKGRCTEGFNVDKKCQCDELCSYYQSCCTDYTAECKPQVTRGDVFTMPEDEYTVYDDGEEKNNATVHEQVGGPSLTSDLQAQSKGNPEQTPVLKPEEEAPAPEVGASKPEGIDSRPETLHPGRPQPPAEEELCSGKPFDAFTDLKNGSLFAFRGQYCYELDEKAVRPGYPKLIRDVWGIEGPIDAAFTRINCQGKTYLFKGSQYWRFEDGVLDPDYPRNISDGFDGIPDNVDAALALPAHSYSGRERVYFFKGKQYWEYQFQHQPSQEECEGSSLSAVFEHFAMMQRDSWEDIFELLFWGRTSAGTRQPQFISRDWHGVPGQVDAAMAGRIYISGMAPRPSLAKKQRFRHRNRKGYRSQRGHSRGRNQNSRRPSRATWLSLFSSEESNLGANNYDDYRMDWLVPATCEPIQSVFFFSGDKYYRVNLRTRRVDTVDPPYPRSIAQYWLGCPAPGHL

The substance “Soluble recombinant human urokinase receptor (suPAR) (from UniProt Q03405 23-299)” displayed a mean absorbance at 450 nm of 0.03 OD450.

Source of the values: patent US20040265797A1.
